{"source": "the DeepSol protein solubility set", "data": [{"assay": "soluble on expression in E. coli; label from the status in PepcDB or PDB records", "values": [{"sequence": "AVTFAVMVSDAPSLDESKLKTPYSSTIYDKNGKEIAEVGAEKRTYVSIDEIPDVVKEAFIATEDARFYEHHGIDPVRIGGALVANFKDGFGAEGGSTITQQVVKNSLLSHQKTLKRKVQEVWLSIQLERNYSKDEILEMYLNRIYFSPRAYGIGKAAEEFFGVTDLSKLTVEQAATLAGMPQSPTAYNPVKNPDKAEKRRNIVLSLMKKQGFISDSQYNKAKKVAVKDEGVVSQKEYEKASTNKYSAFVEEVMKEIDEKSDVDPSADGLKIYTTLDTKAQDKLDELMDGDTVGFTEGMQGGVTLLDTKNGEVRAIGAGRNQPVGGFNYATQTKAQPGSTIKPILDYGPVIENKKWSTYEQIDDSAYTYSNGKPIRDWDRKYLGPISMRYALAQSRNIPALKAFQAVGKDTAVDFANGLGLGLTKDNVTEAYSIGGFGGNDGVSPLTMAGAYSAFGNNGTYNEPHFVKSIEFNDGTKLDLTPKSKSAMSDYTAFMITDMLKTAVKTGTGQLAQVPGVEVAGKTGTTNFDDNEVKRYNIASGGARDSWFVGYTPQYTAAVWTGMGENEAGKKSLSAEEQKVAKRIFAQLIADVDDGSGSFEKPDSVVEATVEKGSNPAKLAGPNTPSDKKLTEYFVKGTAPSTVSKTYEKEEKEETAKLSGLNVKYDKDNQSLTLSWNYDGDATFAVKQSVDGGSYSEIQNSSAKEAVISGVQPGSVYKFEVTAVSDDGKSTASTSYEVPKAEDDEDKKDQQQTDDEKQDDEKTQDDTQTDDSQKDDGQTDQDQTDDSTNDQDKKQDNTNTNPSDNNNQDQSNDNDNDNSNNQDTSDGDSNSGKNDSTGSDTNKNKTDTSNKTQTNSSSIEKT", "soluble on expression in E. coli": "not soluble"}, {"sequence": "MFPRALAIGTPAQHKATEAPVTSTSASGLARFNTLEETAALAELHEACAATAWARHLLAARPFATAEDLYAASDAAMAELSAEDLAEAMAGHPPIGRPKPGDATSSREQAGMAGAAEELKAEMLELNLAYQDKFGHVFLICATGRTGEQMRDAALERIGNSPEQEREIVRTELGKINRIRLTRLVEQDARPAAALEHHHHHH", "soluble on expression in E. coli": "soluble"}, {"sequence": "MPEAVVLINSASDANSIEQTALPVPMALVHRTRVQDAFPVSWIPKGGDRFSVTAVLPHDHPFFAPVHGDRHDPLLIAETLRQAAMLVFHAGYGVPVGYHFLMATLDYTCHLDHLGVSGEVAELEVEVACSQLKFRGGQPVQGQVDWAVRRAGRLAATGTATTRFTSPQVYRRMRGDFATPTASVPGTAPVPAARAGRTRDEDVVLSASSQQDTWRLRVDTSHPTLFQRPNDHVPGMLLLEAARQAACLVTGPAPFVPSIGGTRFVRYAEFDSPCWIQATVRPGPAAGLTTVRVTGHQDGSLVFLTTLSGPAFSGAAALEHHHHHH", "soluble on expression in E. coli": "not soluble"}, {"sequence": "SLSHGKGTDMLPEIAAAVGFLSSLLRTRGCVSEQRLKVFSGALQEALTEHYKHHWFPEKPSKGSGYRCIRINHKMDPIISRVASQIGLSQPQLHQLLPSELTLWVDPYEVSYRIGEDGSICVLYEEAPLAASCGEG", "soluble on expression in E. coli": "soluble"}, {"sequence": "MGSDKIHHHHHHMTQHVIEMREITKKFGDFVANDHINLNVRKGEIHALLGENGAGKSTLMNMLAGLLEPTSGEIVINDKPVQIDSPSKSAKLGIGMVHQHFMLVEAFTVAENIILGNEVVKNGCLDLNQASKDIKVLSEKYGLAINPSAKVSDISVGAQQRVEILKTLYRGADILIFDEPTAVLTPAEIKELMTIMKNLVKEGKSIILITHKLDEIRAVADRVTVIRRGKSIETVDVAGATSQDLAEMMVGRSVSFTTSKKAAEPKDVVLSIKNLEVDENRGVPAVKGLSLDVRAGEIVGIAGIDGNGQSELIQAITGLRKVKSGSIMIKNNEVTHLSSRKITELSVGHVPEDRHRDGLILDLSLAENTALQTYYKQPLSQNGILNYTKINDYARQLMKEFDVRGANELVPARGFSGGNQQKAIIAREVDRDPDLLIVSQPTRGLDVGAIEYIHKRLIKERDKGKAVLVVSFELDEILNLSDRIAVIHDGKIQGIVSPENTNKQELGILMAGGSIHKEEGHV", "soluble on expression in E. coli": "not soluble"}, {"sequence": "MGSDKIHHHHHHAADWQLEKVVELSRHGIRPPTAGNREAIEAATGRPWTEWTTHDGELTGHGYAAVVNKGRAEGQHYRQLGLLQAGCPTAESIYVRASPLQRTRATAQALVDGAFPGCGVAIHYVSGDADPLFQTDKFAATQTDPARQLAAVKEKAGDLAQRRQALAPTIQLLKQAVCQADKSCPIFDTPWQVEQSKSGKTTISGLSVMANMVETLRLGWSENLPLSQLAWGKITQARQITALLPLLTENYDLSNDVLYTAQKRGSVLLNAMLDGVKPEANPNVRWLLLVAHDTNIAMVRTLMNFSWQLPGYSRGNIPPGSSLVLERWRNAKSGERYLRVYFQAQGLDDLRRLQTPDAQHPMLRQEWHQPGCRQTDVGTLCPFQAAITALGQRIDRSSAPAVAMVLP", "soluble on expression in E. coli": "not soluble"}, {"sequence": "KDFTWNTGVTYSMNKNKILTLADNAINPITREKFSISSLNMGGLGSTRFILKEGGSMGDIYSLMDLKRDANGAVYIDENNSVVTESLEANNYIKLGSVLPKGNLAWRNNFSWKNINVAFLVSARLGGVVFSRTQAVLDNFGVSEASAAARDKGYVSVNGNDRVNPEGWYSVVAGGTAVPQYYIYSATNIRLQEASIGYTIPRKWLGNVCDIKVSLIGRNLWMIYNKAPFDPESVASTDNFYQGIDYFMMPSLRNIGFNLSFKF", "soluble on expression in E. coli": "not soluble"}, {"sequence": "GPLGSCDSGTGLTGNYSQDTLTVIATLREAIDLPQDAPNRQEVQDTARGQINDYISRYRRKGDAGGLKSFTTMQTALNSLAGYYTSYGARPIPEKLKKRLQLEFTQAERSIERGV", "soluble on expression in E. coli": "soluble"}, {"sequence": "MLAAWLGCVLPAGAGLPVETLRVPPGFRVELLTEAMPSAREMALSPAGILYVGSRTGKVYALPLQVPGATVRVVASGLEQPVGVAWRDGSLYVSAVSRVVRLDRIDSRLDDPPVPVVVSDRFPTETHHGWKFIAFGPDGKLYVPVGAPCNVCHRDEDRYANLMRMNADGSSLEVVARGIRNTVGFDWHPVTHELWFTDNGADMMGDDVPDDELNRITAPGQHFGYPFCHAGDVPDPEFGAGHPCSRYVPPVGKLGAHVAALGMRFYTGSNFPQAYRHNLFIAEHGSWNRSSKVGYRVVRVVLDAAGKVVRQEPFVEGWLRGERAWGRPVDVLVAPDGSLLVSDDYAGAVYRVRYTGKLEHHHHHH", "soluble on expression in E. coli": "soluble"}, {"sequence": "MAEATDVVLVGGGIMSATLGVLLKELEPSWEITLIERLEDVALESSNAWNNAGTGHSALCELNYAPLGANGIIDPARALNIAEQFHVSRQFWATLVAEGKLEDNSFINAVPHMSLVMNEDHCSYLQKRYDAFKTQKLFENMEFSTDRNKISDWAPLMMRGRDENQPVAANYSAEGTDVDFGRLTRQMVKYLQGKGVKTEFNRHVEDIKRESDGAWVLKTADTRNPDGQLTLRTRFLFLGAGGGALTLLQKSGIPEGKGYGGFPVSGLFFRNSNPETAEQHNAKVYGQASVGAPPMSVPHLDTRNVDGKRHLMFGPYAGFRSNFLKQGSLMDLPLSIHMDNLYPMLCAGWANMPLTKYLLGELRKTKEERFASLLEYYPEANPDDWELITAGQRVQIIKKDSEKGGVLQFGTEIVAHADGSLAALLGASPGASTAVPLMIRLMHQCFPERAPSWEDRLKELVPGYGIKLNENPERADEIIAYTAKVLDI", "soluble on expression in E. coli": "not soluble"}, {"sequence": "MIQRFIELGEGYSDIYELIALAKANRHRLSGFFVFHTVKKGQAVVSLAIVLHPTDPGDFQPLYICREGIPDPSVKPNKRYELFMETAKELGMDVIHLDVKPSTMFAELDLYYQHLIGIMRMNRFIPPLQ", "soluble on expression in E. coli": "not soluble"}, {"sequence": "MGSDKIHHHHHHMRLVVDGFGKYLGIENGLIVVKEKGKALRKVRPEDLKQVLIIGKAAISSDAIKLLLKNRVDVVFLDFNGEILGRLSHPLIGTAKTRREQYLAYGDKRGVHLAKEFIKAKMANQMAILTNLAKARKDSNPEVAESLLKAKKEIDACLNELDGVEAEMIDKVRERLLGIEGKASKHYWDAISLVIPEEYRFNGRRGIEIGSPRYAKDIVNAMLNYGYSILLAECVKAVELAGLDPYAGFLHVDVSGRSSLAIDLMENFRQQVVDRVVLRLISYRQIKPEDCEKRNMVCQLSDNARRLLLASLLERLDSKTQYRGRNLAYSSIILLHARDVVAFLRGERRYEGFVQKW", "soluble on expression in E. coli": "not soluble"}, {"sequence": "MIVIFVDFDYFFAQVEEVLNPQYKGKPLVVCVYSGRTKTSGAVATANYEARKLGVKAGMPIIKAMQIAPSAIYVPMRKPIYEAFSNRIMNLLNKHADKIEVASIDEAYLDVTNKVEGNFENGIELARKIKQEILEKEKITVTVGVAPNKILAKIIADKSKPNGLGVIRPTEVQDFLNELDIDEIPGIGSVLARRLNELGIQKLRDILSKNYNELEKITGKAKALYLLKLAQNKYSEPVENKSKIPHGRYLTLPYNTRDVKVILPYLKKAINEAYNKVNGIPMRITVIAIMEDLDILSKGKKFKHGISIDNAYKVAEDLLRELLVRDKRRNVRRIGVKLDNIIINKTNLSDFFDI", "soluble on expression in E. coli": "soluble"}, {"sequence": "MHKAGLLGLCARAWNSVRMASSGMTRRDPLANKVALVTASTDGIGFAIARRLAQDGAHVVVSSRKQQNVDQAVATLQGEGLSVTGTVCHVGKAEDRERLVATAVKLHGGIDILVSNAAVNPFFGSIMDVTEEVWDKTLDINVKAPALMTKAVVPEMEKRGGGSVVIVSSIAAFSPSPGFSPYNVSKTALLGLTKTLAIELAPRNIRVNCLAPGLIKTSFSRMLWMDKEKEESMKETLRIRRLGEPEDCAGIVSFLCSEDASYITGETVVVGGGTPSRL", "soluble on expression in E. coli": "not soluble"}, {"sequence": "MDREQVVALQHQRFAAKKYDPNRRISQKDWEALVEVGRLAPSSIGLEPWKMLLLKNERMKEDLKPMAWGALFGLEGASHFVIYLARKGVTYDSDYVKKVMHEVKKRDYDTNSRFAQIIKNFQENDMKLNSERSLFDWASKQTYIQMANMMMAAAMLGIDSCPIEGYDQEKVEAYLEEKGYLNTAEFGVSVMACFGYRNQEITPKTRWKTEVIYEVIE", "soluble on expression in E. coli": "soluble"}, {"sequence": "MQFNYDVIVVGAGHAGCEAAAAAAKLGSQVLLITPDMNKIAQMSCNPAVGGIAKGQIVREIDALGGRMGIVTDATAIQFRMLNRSKGPAMWSPRAQSDRMRFMEAWRDIVEHEPNLYMWQDSVRCLSIRQGAVAGVVTALGVEFQARTVVLTTGTFLGGVMHFGERMIEGGRIAEPAFHGITEQLRDLGFRTDRMKTGTPARIDGRSIDFSLTTEQSGEEDHHRFSYMDTPRRVLRQRSCYALYTNPECHEILSKGLDRSPLYNGQIQSIGPRYCPSIETKIVTFADKEMHQLFLEPEGETSNEFYLNGFSSSLPLEIQLEALKAIPALRHVHIYRPGYAIEYDFFDPTQLRHTLETKPVKGLFFAGQINGTTGYEEAAGQGLIAGINAHLHCHGAGEFTLGRDEAYIGVLIDDLVSKGVDEPYRMFTSRAEYRILLRQDDADMRLTPKAEAIGLADSRRSELLREKQVFRDKLIDFTHKFSLKPDLINPHLESAGHLPLKQGIKLYDLLLRPQIGMNEVCSMVPSLQRIVEEIPASRREEIVEAAEILIKYDGYIKRERALADKINRLESIRLPQHVDYMQMQSLSTEARQKLTSIRPETIAQASRIPGVSPHDVSILLVLCGR", "soluble on expression in E. coli": "not soluble"}, {"sequence": "MGSDKIHHHHHHMGTVLIHVCCAPDLLTTIFHVRDAEFFFYNPNIQPLSEYEKRREAVDKVANHFSLNVRYGEYSTEEIRKWYTAVKDYKDLGEGSKRCERCISFLLERTAQEARKRGHESFSTTLLASPRKNLPMIENIGKTIEEKYGVKFFFKNFRKGGAYQEGVRLSKELGIYRQNYCGCVFSLLERREKHAEISRKRGHM", "soluble on expression in E. coli": "not soluble"}, {"sequence": "MIDTHIHSDTRGLEDLELMAMCLDGVITLAHDPFEMKNIKVWEAHVEKLLINELERAKKVGLNLFICVGMHPRAIPPEIDEALDKIKSYINYNSRVVGIGEIGLEKATKEEKEVFIKQLLLAEELNMPAVVHTPRRNKEEVTKIILDEISTLNLKNRDIVIEHCNKETTKWVLDEEFYVGLTIQPGKLTPLEAVEIVKEYKDFADKILLNSDCSSNASDVLAVPRTVLKMKINGIEKDVIYKVAHKNAVNLFGLDI", "soluble on expression in E. coli": "not soluble"}, {"sequence": "MGHHHHHHSHMLLTMPGGVAKAGYLHKKGGTQLQLLKWPLRFVIIHKRCVYYFKSSTSASPQGAFSLSGYNRVMRAAEETTSNNVFPFKIIHISKKHRTWFFSASSEEERKSWMALLRREIGHFHEKKDLP", "soluble on expression in E. coli": "soluble"}]}]}
